The numbers were not newly measured in publication PMC11475284, which cites them from elsewhere.

By Kd is commonly meant the free concentration of one partner at which half of the binding sites on the other are occupied at equilibrium, for simple one-to-one binding.

“And” between values parts separate entries of the source, which are not always exact repeats. Identical values can stand only once.

For this data set, the target named is Axin1 DAX (Homo sapiens) (UniProt O15169). The data set is described as follows: SEC-MALS. (Size exclusion chromatography separates by hydrodynamic size, large species first.)

Axin1 DAX (from UniProt O15169): the Kd is 900 nM and 240 nM.
